Laboratory results as given in paper PMC3741282, “Novel VEGF Decoy Receptor Fusion Protein Conbercept Targeting Multiple VEGF Isoforms Provide Remarkable Anti-Angiogenesis Effect In Vivo” (PLoS ONE, 2013).

Columns and labels:
Conditions in all cases: both partners purified
[1] = biological target: T1, placental growth factor (PlGF) (UniProt P49763 19-221); experiment: SPR; BIACORE 3000; VEGF-B167 and PlGF immobilized on CM5 chip, FC1 blank; conbercept injected at eight two-fold dilutions 31.25 nM to 4000 nM in HBS buffer
T1 chain: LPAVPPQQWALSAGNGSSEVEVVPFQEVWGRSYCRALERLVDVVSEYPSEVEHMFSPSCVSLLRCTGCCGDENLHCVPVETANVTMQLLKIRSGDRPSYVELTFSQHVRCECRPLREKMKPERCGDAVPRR

[2] = biological target: T2, VEGF-B167 (UniProt P49765-2 22-188); experiment: as above
T2 construct: VEGF-B, isoform VEGF-B167; source: bought: R&D
T2 sequence (looked up): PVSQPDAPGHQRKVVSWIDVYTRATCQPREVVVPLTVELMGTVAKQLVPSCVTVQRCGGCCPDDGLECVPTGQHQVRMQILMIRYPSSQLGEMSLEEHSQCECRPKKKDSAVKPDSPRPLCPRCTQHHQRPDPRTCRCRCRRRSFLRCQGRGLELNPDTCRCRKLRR

[3] = biological target: T3, VEGF-A165; experiment: ELISA; antigen (VEGF-A165, VEGF-B167 or PlGF) coated at 4 nM in PBS on PVC plate, blocked with 1% BSA; diluted conbercept added 2 h at room temperature; detected with HRP goat anti-human secondary antibody, absorbance at 450 nm
T3 chain: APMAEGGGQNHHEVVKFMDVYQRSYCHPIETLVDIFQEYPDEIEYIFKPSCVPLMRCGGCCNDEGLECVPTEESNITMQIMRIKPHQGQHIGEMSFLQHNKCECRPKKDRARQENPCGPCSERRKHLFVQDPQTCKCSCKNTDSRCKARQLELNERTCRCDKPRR

[4] = biological target: T3, VEGF-A165; experiment: SPR; BIACORE 3000; VEGF-A isoforms amine-coupled on CM5 chip (about 5,000±500 RU), FC1 blank; conbercept injected at eight two-fold dilutions 1.25 nM to 160 nM in HBS buffer (10 mM HEPES, 0.15 M sodium chloride, 3.4 mM EDTA, 0.005% surfactant P20); 1:1 binding with baseline drift model
[5] = biological target: T4, VEGF-A121; experiment: as above
T4 chain: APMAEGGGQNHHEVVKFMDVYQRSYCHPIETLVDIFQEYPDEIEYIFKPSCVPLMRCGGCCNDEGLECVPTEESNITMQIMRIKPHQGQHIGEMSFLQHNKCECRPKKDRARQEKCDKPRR

B1: conbercept (Fc fusion)
chain: GRPFVEMYSEIPEIIHMTEGRELVIPCRVTSPNITVTLKKFPLDTLIPDGKRIIWDSRKGFIISNATYKEIGLLTCEATVNGHLYKTNYLTHRQTNTIIDVVLSPSHGIELSVGEKLVLNCTARTELNVGIDFNWEYPSSKHQHKKLVNRDLKTQSGSEMKKFLSTLTIDGVTRSDQGLYTCAASSGLMTKKNSTFVRVHEKPFVAFGSGMESLVEATVGERVRIPAKYLGYPPPEIKWYKNGIPLESNHTIKAGHVLTIMEVSERDTGNYTVILTNPISKEKQSHVVSLVVYVPP
modifications: Human IgG1 Fc carrier left out; it dimerises the chain (copies 2). Limits not printed: VEGFR1 Ig2 and VEGFR2 Ig3-4 taken by convention from decoy-receptor boundaries and entry features. Glycosylated …
- Kd [1]: 51.2 nM
- koff [1]: 0.00581 s⁻¹
- kon [1]: 114000 M⁻¹ s⁻¹
- Kd [2]: 81.8 nM
- koff [2]: 0.00558 s⁻¹
- kon [2]: 68300 M⁻¹ s⁻¹
- EC50 [3]: 0.1 nM
- Kd [4]: 5.4 nM
- koff [4]: 0.00105 s⁻¹
- kon [4]: 194000 M⁻¹ s⁻¹
- Kd [5]: 5.26 nM
- koff [5]: 0.00105 s⁻¹
- kon [5]: 199000 M⁻¹ s⁻¹
